Reference: the supplement of paper PMC9112550, “Optimization of the antimicrobial peptide Bac7 by deep mutational scanning” (BMC Biology, 2022)

Tested on: Escherichia coli TOP10
Experiment: shrunken log2 fold change of peptide-encoding DNA abundance (4.5 h post-induction vs induction); higher = less antimicrobial activity (less host growth inhibition)
Conditions: time post-induction: 4.5 h; library: site-saturation at positions 5, 18, 19, 20
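Also: peptides expressed intracellularly from a pBAD plasmid library in pooled LB shake-flask culture, induced with 0.3% L-arabinose, DNA abundance read by NGS, three biological replicates, DESeq2 with apeglm shrinkage.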

Sequence	shrunken log2 fold change
RRIRHRPPRLPRPRPRPHFKPRP	-0.455
RRIRWRPPRLPRPRPRPNCEPRP	0.0915
RRIRARPPRLPRPRPRPWYGPRP	-0.634
RRIRGRPPRLPRPRPRPKCAPRP	1.61
RRIRGRPPRLPRPRPRPEMTPRP	3.26
RRIRVRPPRLPRPRPRPFGIPRP	-0.371
RRIRDRPPRLPRPRPRPTPCPRP	0.25
RRIRHRPPRLPRPRPRPHVNPRP	-0.183
RRIRKRPPRLPRPRPRPSDFPRP	-0.00266
RRIRCRPPRLPRPRPRPIQMPRP	-0.0491
RRIRSRPPRLPRPRPRPIGRPRP	0.104
RRIRWRPPRLPRPRPRPRCLPRP	0.164
RRIRCRPPRLPRPRPRPLNGPRP	-0.444
RRIRYRPPRLPRPRPRPMCKPRP	-0.368
RRIRKRPPRLPRPRPRPVDEPRP	0.358
RRIRHRPPRLPRPRPRPSNAPRP	-0.38
RRIRIRPPRLPRPRPRPNSHPRP	-0.866
RRIRSRPPRLPRPRPRPDNLPRP	-0.0926
RRIRRRPPRLPRPRPRPMQFPRP	-0.058
RRIRNRPPRLPRPRPRPMQQPRP	-0.0561
RRIRLRPPRLPRPRPRPVTPPRP	-0.0834
RRIRARPPRLPRPRPRPMFDPRP	-0.101

Sequence	shrunken log2 fold change
RRIRRRPPRLPRPRPRPLREPRP	1.14
RRIRLRPPRLPRPRPRPTMCPRP	-0.0109
RRIRYRPPRLPRPRPRPAQEPRP	0.075
RRIRLRPPRLPRPRPRPIFFPRP	0.103
RRIRERPPRLPRPRPRPLFFPRP	-0.225
RRIRNRPPRLPRPRPRPRMSPRP	-0.238
RRIRERPPRLPRPRPRPEIAPRP	-0.0389
RRIRCRPPRLPRPRPRPWHDPRP	-0.142
RRIRWRPPRLPRPRPRPVTLPRP	-0.147
RRIRDRPPRLPRPRPRPCCRPRP	-0.197
RRIRMRPPRLPRPRPRPWWPPRP	0.445
RRIRLRPPRLPRPRPRPAGVPRP	0.103
RRIRIRPPRLPRPRPRPRAGPRP	1.6
RRIRDRPPRLPRPRPRPGDLPRP	0.178
RRIRRRPPRLPRPRPRPIRYPRP	0.0578
RRIRTRPPRLPRPRPRPGACPRP	-0.234
RRIRWRPPRLPRPRPRPEQEPRP	0.0529
RRIRKRPPRLPRPRPRPLLCPRP	0.347
RRIRCRPPRLPRPRPRPKYRPRP	-0.326
RRIRQRPPRLPRPRPRPDAVPRP	-0.0012
RRIRPRPPRLPRPRPRPDADPRP	0.0741
RRIRARPPRLPRPRPRPMEYPRP	-0.154

Sequence	shrunken log2 fold change
RRIRIRPPRLPRPRPRPVRNPRP	-0.0578
RRIRVRPPRLPRPRPRPIVLPRP	-0.176
RRIRSRPPRLPRPRPRPFDAPRP	-0.279
RRIRRRPPRLPRPRPRPQVAPRP	0.157
RRIRFRPPRLPRPRPRPQHCPRP	-0.461
RRIRYRPPRLPRPRPRPCDVPRP	-0.739
RRIRLRPPRLPRPRPRPMKMPRP	-0.409
RRIRLRPPRLPRPRPRPADNPRP	-0.26
RRIRSRPPRLPRPRPRPKKPPRP	0.0165
RRIRNRPPRLPRPRPRPQWYPRP	-0.209
RRIRGRPPRLPRPRPRPYQLPRP	0.147
RRIRPRPPRLPRPRPRPERLPRP	0.0284
RRIRYRPPRLPRPRPRPQNMPRP	-1.33
RRIRHRPPRLPRPRPRPQTNPRP	-0.633
RRIRVRPPRLPRPRPRPDGVPRP	-0.0176
RRIRDRPPRLPRPRPRPPEYPRP	-0.0893
RRIRTRPPRLPRPRPRPTWPPRP	0.439
RRIRPRPPRLPRPRPRPTGWPRP	0.519
RRIRRRPPRLPRPRPRPDNEPRP	0.207
RRIRSRPPRLPRPRPRPKADPRP	0.572
RRIRHRPPRLPRPRPRPYMDPRP	-0.356
RRIRSRPPRLPRPRPRPFQVPRP	-0.0848

Sequence	shrunken log2 fold change
RRIRWRPPRLPRPRPRPMCKPRP	-0.0527
RRIRERPPRLPRPRPRPAGFPRP	0.67
RRIRFRPPRLPRPRPRPQLVPRP	-0.117
RRIRWRPPRLPRPRPRPIWWPRP	0.314
RRIRPRPPRLPRPRPRPNLAPRP	0.294
RRIRDRPPRLPRPRPRPHDPPRP	-0.147
RRIRLRPPRLPRPRPRPESDPRP	-0.0845
RRIRMRPPRLPRPRPRPHVCPRP	-0.107
RRIRMRPPRLPRPRPRPLHTPRP	2.66
RRIRWRPPRLPRPRPRPFLPPRP	-0.687
RRIRNRPPRLPRPRPRPMFQPRP	-0.0465
RRIRDRPPRLPRPRPRPSENPRP	-0.0386
RRIRIRPPRLPRPRPRPRAPPRP	0.347
RRIRIRPPRLPRPRPRPYEYPRP	-0.0772
RRIRSRPPRLPRPRPRPAGYPRP	0.0337
RRIRARPPRLPRPRPRPDFMPRP	0.466
RRIRCRPPRLPRPRPRPDYGPRP	2.76
RRIRDRPPRLPRPRPRPPWIPRP	-0.29
RRIRRRPPRLPRPRPRPPQAPRP	1.19
RRIRIRPPRLPRPRPRPNFPPRP	-0.144
RRIRGRPPRLPRPRPRPYKIPRP	-0.618
RRIRVRPPRLPRPRPRPQGLPRP	-0.29

Sequence	shrunken log2 fold change
RRIRYRPPRLPRPRPRPKYKPRP	-0.78
RRIRWRPPRLPRPRPRPSNDPRP	0.391
RRIRERPPRLPRPRPRPRQIPRP	0.0409
RRIRVRPPRLPRPRPRPAHRPRP	-0.0183
RRIRARPPRLPRPRPRPQQLPRP	0.176
RRIRSRPPRLPRPRPRPHFLPRP	-0.318
RRIRDRPPRLPRPRPRPHCVPRP	0.017
RRIRGRPPRLPRPRPRPYYFPRP	0.0211
RRIRDRPPRLPRPRPRPNGHPRP	-0.252
RRIRWRPPRLPRPRPRPPQPPRP	0.66
RRIRNRPPRLPRPRPRPQSYPRP	0.0549
RRIRIRPPRLPRPRPRPAESPRP	0.0486
RRIRDRPPRLPRPRPRPTYMPRP	-0.248
RRIRRRPPRLPRPRPRPQVMPRP	0.0874
RRIRFRPPRLPRPRPRPMFQPRP	-0.336
RRIRDRPPRLPRPRPRPICQPRP	0.0244
RRIRPRPPRLPRPRPRPAFYPRP	-0.00911
RRIRERPPRLPRPRPRPLQKPRP	-0.113
RRIRWRPPRLPRPRPRPKIWPRP	0.272
RRIRDRPPRLPRPRPRPVLMPRP	-0.134
RRIRKRPPRLPRPRPRPSEPPRP	0.249
